{"source": "paper PMC10924945", "test_in_all_cases": "EMSA", "key": {"[1]": {"target": "T1, BfmR (Pseudomonas aeruginosa PAO1) (UniProt Q9HWS7)", "T1 sequence": "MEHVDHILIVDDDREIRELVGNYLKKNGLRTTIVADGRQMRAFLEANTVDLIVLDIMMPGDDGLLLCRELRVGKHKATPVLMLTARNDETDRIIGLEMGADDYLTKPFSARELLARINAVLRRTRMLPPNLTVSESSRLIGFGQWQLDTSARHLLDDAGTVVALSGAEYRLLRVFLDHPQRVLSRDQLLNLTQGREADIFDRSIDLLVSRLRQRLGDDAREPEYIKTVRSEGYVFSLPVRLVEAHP"}, "[2]": {"target": "T2, BfmR D205A D205A (Pseudomonas aeruginosa PAO1) (UniProt Q9HWS7)", "T2 sequence": "T1 sequence with D205A"}, "[3]": {"target": "T3, BfmR R185A R185A (Pseudomonas aeruginosa PAO1) (UniProt Q9HWS7)", "T3 sequence": "T1 sequence with R185A"}, "[4]": {"target": "T4, BfmR R202A R202A (Pseudomonas aeruginosa PAO1) (UniProt Q9HWS7)", "T4 sequence": "T1 sequence with R202A"}, "[5]": {"target": "T5, BfmR R210A R210A (Pseudomonas aeruginosa PAO1) (UniProt Q9HWS7)", "T5 sequence": "T1 sequence with R210A"}, "[6]": {"target": "T6, BfmR R212A R212A (Pseudomonas aeruginosa PAO1) (UniProt Q9HWS7)", "T6 sequence": "T1 sequence with R212A"}, "[7]": {"target": "T7, BfmR S209A S209A (Pseudomonas aeruginosa PAO1) (UniProt Q9HWS7)", "T7 sequence": "T1 sequence with S209A"}, "[8]": {"target": "T8, BfmR T227A T227A (Pseudomonas aeruginosa PAO1) (UniProt Q9HWS7)", "T8 sequence": "T1 sequence with T227A"}}, "note": "Where a chain is given by its changes, count along the chain named."}
{"sequence": "CATCGGATTCCTGCGAATACTACTGATAACGATAATCTCTATCATTTACTCCATTTTTACATTTACATACACTTGCCCCGCCGCGAATTCCTACGCCGGTTTCCCACATAAACAAGAAACGC (double strand) [PfpvB]", "values": [{"measurement": "binding", "setting": "[1]", "value": "binds"}, {"measurement": "binding", "setting": "[2]", "value": "binds more weakly"}, {"measurement": "binding", "setting": "[3]", "value": "binds more weakly"}, {"measurement": "binding", "setting": "[4]", "value": "binds more weakly"}, {"measurement": "binding", "setting": "[5]", "value": "binds more weakly"}, {"measurement": "binding", "setting": "[6]", "value": "binds more weakly"}, {"measurement": "binding", "setting": "[7]", "value": "binds more weakly"}, {"measurement": "binding", "setting": "[8]", "value": "binds more weakly"}]}
